B1: Pistol ribozyme (parent)
chain: GGGUCGUUGUUCCAUAAUCGCGUGGAUAUGGCACGCAAGUUUCUACCGGGCACCGUAAAUGUCCGACUGGAGCCGUUCGGGCGGCUAUAAACAGACCUCAGGCCCGAAGCGUGGCGGCACCUGCCGCCGGUGGUAAAAAAGAUCGGAAGAGCACACGUCU

Variants of: B1
Experiment: aptazyme ON/OFF ratio, guanine; higher = stronger switching; co-transcriptional cleavage with and without guanine

Variant | aptazyme ON/OFF ratio
U7A U8G G9A U10A U11G C12G | 1.26
U7G U8G G9U U11C C12U | 1.65
U8A G9A U10C C12U C13A | 1.17
U7G U8G G9C U10G U11G C12A C13G | 1.15
U8G U10C U11G C12U C13A | 1.14
U8G G9U U10C U11A C13U | 1.12
U7A U8C C12G C13U | 1.35
U7G U8G U10A U11A C13A | 1.33
U7A U10G U11A C12U C13A | 1.29
U7G U8C G9A U10G U11C C12G C13U | 1.18
U7G U8G G9A U10C U11C C12G C13G | 1.03
U7C U8G G9C U10A C12G C13G | 1.2
U7C U8G G9A U10A | 1.18
U7A U8C G9C U10A U11C C12G C13G | 1.27
U7C U8A G9U U10C U11G C13A | 1.18
U8A G9A U10A U11G C12A | 1.01
U7G U8G G9U U10C U11A C13G | 1.23
U7A U8C G9C U10C C12A | 1.03
U7A U8G U10G U11G C12A C13A | 1.22
U7C U8A G9U U11C C13U | 1.03
U7G G9C U10C U11G C12A C13G | 1.13
U7G U8A U10C U11C C12G C13U | 1.3
U10G U11C C12A | 1.51
U7A U8G G9C U10C U11C | 0.976

Variant | aptazyme ON/OFF ratio
U7A U8A G9A U10A U11G C12G C13G | 1.32
U7G G9A U10C C12G C13G | 1.19
U7C G9A U10G U11A C13U | 1.03
U8G U10A U11A C13U | 1.17
U7A U8G G9C U10G U11C C12A | 1.47
U8G U10G U11A C12G C13A | 1.13
U7C U8A G9A U10C U11A C12A C13G | 1.1
U7A U10C C12A C13G | 1.12
U7C U8G U10C C13G | 2.71
U7G U8A G9A U10C U11G C13A | 1.14
U7A U8G U10G C12A C13U | 1.15
U8A G9C U11A C12A C13G | 1.18
U7C U8A G9A U10C U11C C12A C13A | 1.03
U7C U8A G9U U10C U11G | 1.06
U7A U10A U11A C12A C13G | 1.14
U7G U10C | 1.5
U7G U8C G9U U10G U11C C12U C13U | 1.16
U7A U8C G9U U10A C12A | 1.25
U7A U8G U10G | 1.25
U7G U8A G9U U10G U11A C12G C13G | 1.05
U7G U8A G9C U11C C12A C13A | 1.04
U7A U8C | 1.98
U7C G9C U10C C12G C13U | 1.08
U7A U8G G9C U10G U11C C12A C13G | 1.22

Variant | aptazyme ON/OFF ratio
U7A G9U U10A U11G C12G C13A | 1.16
U7G U8A G9A U10C U11A | 1.4
U7A G9C U10A U11G C12U C13U | 1.16
U8G G9A U10G U11G C12G C13A | 1.19
U7C U8C G9U U10A U11G C12G C13A | 1.19
U10C U11A C12A C13G | 1.36
U7C U8G U10G U11G C12G C13A | 1.17
U7A G9A U10C C12G C13U | 1.2
U8C G9A U10A C12U C13U | 1.33
U7A U8C G9A U10C U11C C12G | 1.11
U8A G9C U10G U11G C13U | 1.23
U7A U8G G9C U10C U11G C12G | 1.16
U7A U8C U10C C12G C13G | 1.22
G9C U10C U11A C12U C13G | 1.1
U8G G9C C12A C13A | 1.04
U7A G9C U10C C12A C13U | 1.04
U7G U8C G9U U10C U11C C12A | 1.42
U7A G9U U10A U11C C12G C13A | 1.09
U7A U8C G9C U10A U11G C13A | 1.1
U7C U8A G9A U10G C12G C13G | 1.04
U8A G9U U10C C13U | 1.15
U7C U8C G9A U10G U11G C12A C13U | 1.15
U7G U8C G9U U10G C12A | 1.58
G9A U10A C13A | 1.41

Variant | aptazyme ON/OFF ratio
U8C U11C C12A | 1.14
U7G U10G U11C C12A C13A | 1.11
U8C G9C U10G U11A C12A C13A | 1.16
U8A G9C U11G | 1.25
G9C C12A | 1.38
U7A U8G G9C U10A U11G C13U | 1.37
U7G U8G G9C U10A U11A C13A | 1.06
U8A G9C U10A U11A C13U | 1.22
U8G G9C U10A C12G | 1.1
U7G U8G U10G U11C C12G | 1.29
U7C U8G U10A C12G | 1.18
U11C C12U | 1.57
U7A U8A G9U U10G U11C C12A | 1.33
U7A G9U U10A U11A | 1.43
U7A U10G U11G C12G C13A | 1.11
U7C U8C G9A U10C U11C C12A C13A | 1.39
U7G G9C U10A U11G C12U C13U | 1.26
U7A G9U U10G C13U | 1.54
G9U U11G C12A | 2.21
U7G U8C G9A U10C U11A C13U | 1.28
U7C U8G G9A U11G C12A C13U | 1.19
U7G U8C G9U U10G U11A C12U C13U | 1.36
U7A U8C G9U U10G U11G C12U | 1.25
U8C G9C U10G C12U C13G | 1.06

Variant | aptazyme ON/OFF ratio
U7A U8A G9A U10C U11C C13G | 0.997
U7A G9U U10G U11C C12U | 1.06
U7C G9A U10G U11A C12G C13U | 1.25
G9C U10A C12G | 1.22
U8C U10C U11C C12G C13U | 1.3
U7A U8G U11C C12U C13A | 1.43
U7C U8C U10C U11A C12U C13A | 1.33
U7G U8G G9C U10G U11G C12G C13A | 1.06
U8G U11A C12A C13G | 1.14
U8G G9U U10A U11G C12U C13A | 1.05
U7C U8G G9C U10G U11C C12U C13G | 1.25
U7G U8A G9A U10C U11A C12G C13U | 1.12
U7C U8G U10A U11G C12G C13G | 1.23
U7C G9A U11A C12A C13G | 1.12
U7G U8C G9A U10C U11A C12G C13U | 1.33
U7A U8C U10C C12U C13A | 1.17
G9A U10A U11G C12A C13G | 1.28
U7A U8C G9A U10C C13G | 1.07
U7C G9A U10G U11G C12G C13G | 1.05
U7A U8G G9C U10G U11C C12A C13A | 1.38
U7G U8A U11C C12U C13G | 1.09
U7A U8C G9U U10G U11A C12U | 1
U7C U8C G9U U10C U11A C13G | 1.14
U8C G9C U10A U11C C13A | 1.23

Variant | aptazyme ON/OFF ratio
U7A U8A G9A U10A U11C C12G C13G | 1.3
U7G G9U U10A C12G C13U | 1.4
U8G G9U C12A C13U | 1.07
U7C U8G G9C U10A U11A C12G C13A | 1.12
U7C G9U C12A C13U | 1.19
U7G G9U U10A U11A C12U C13U | 1.28
U7A U8A G9A U10A U11A | 1.15
U7C U8G U10G C13G | 1.29
U7A U8C G9U C12A C13A | 1.15
U7A U11C C13A | 1.19
U7A U11C | 1.29
U7G G9A U10G U11C C12A | 1.12
U8A G9C U11C C12U C13A | 1.05
U8C G9C U11A C13G | 1.12
U7G U8C G9C U11G C12A C13U | 1.23
U7G U8C G9U U11A C13A | 1.22
U7A U8A G9U U10A C13G | 1.08
U7A U8A G9C U11G C12U C13A | 1.37
G9U U10C C12G C13A | 1.35
U7G U8C U10G U11C C12G | 2.08
U8A G9C U10G U11C C13U | 1.03
U7A G9A U10C U11A C12A | 1.24
U8C G9U U10C U11G C12A C13A | 1.19
U7G G9C U11G C12U C13G | 1.27

Variant | aptazyme ON/OFF ratio
G9A U11G C12A C13A | 1.18
U8A U10A U11C C12A C13G | 1.06
U7C G9A U10A U11A C13U | 1.16
U7A G9U U10G C12A | 1.15
U7C U8A G9C U10A U11G C12A C13G | 1.12
U7A U8G G9A U11A C12U C13U | 1.32
U7C G9C U10C U11A C12G | 0.941
U7A U8G G9U U10C U11G C12U C13G | 1.31
U8A G9U U11G C12U | 1.51
U8C U10A U11C C12U | 1.02
U7A U8G G9U U10A U11G C12G C13G | 1.14
U7G U8C G9C U10C C13U | 1.15
U7A U8A U10G U11G C12A C13U | 1.34
U7C U8G G9C U10G U11A | 1.07
U7A G9C U10G U11A C12U | 1.04
U7A U8G U11G C13U | 1.31
U7G U8C U10A U11G C13G | 1.23
U7C G9C U10A U11C C12A | 1.07
U8G G9U U10A U11C C12G | 1.1
U7A U8C G9A U10A U11C C12A C13G | 1.18
U7G U8A G9A U10G U11A C13G | 1.06
U7G U8C G9C U10A U11C C12G C13G | 1.14
U7C U8C G9C U11G C12A C13A | 1.13

Source: the RNAGym collection of RNA variant scans (doi:10.1021/acssynbio.7b00057)
